Data from patent US20190062389A1 (CYTLIMIC, published 2019).

Assays:
[1] = target: T1, HLA-A*24:02 molecule (product of HLA-A*24:02 gene) on C1R-A24 cells (human); test: flow cytometry, acid-stripped C1R-A24 cells with added b2m, peptide dilution series, 17A12 staining
T1 construct: MHC class I molecule emptied of peptide; the peptide under test reassembles with heavy chain and added b2m; assembly stained with antibody 17A12
Description: First, C1R-A24 cells were exposed to acidic conditions of pH 3.3 for 30 seconds to dissociate and remove endogenous peptides which were originally bound to the HLA-A*24:02 molecule and a light chain, β2m, which was commonly associated with HLA class I molecules. After neutralization, purified β2m was added to the C1R-A24 cells, which was then added to peptide dilution series. The mixtures were each then incubated on ice for 4 hours. The 3-molecule assembly (MHC-pep) consisting of the HLA-A*24:02 molecule, the peptide, and β2 m which had been reasociated during the incubation was stained with a fluorescent labeled monoclonal antibody, 17A12, recognizing the assembly.
Subsequently, the number of MHC-pep's per C1R-A24 cell (which is proportional to the fluorescent intensity of the above fluorescent antibody) was quantitatively measured using a fluorescent cell analyzer, FACScan (Becton, Dickinson and Company). The binding dissociation constant, Kd value, between the HLA-A*24:02 molecule and the peptide was calculated from the average fluorescent intensity per cell using a method as published in a paper (Udaka et al., Immunogenetics, 51, 816-828, 2000) by the present inventor.

[2] = target: HLA-A*02:06 molecule (product of HLA-A*02:06 gene) on RA2.6 cells (human); test: flow cytometry, RA2.6 cells, peptide dilution series, BB7.2 staining
Description: First, the RA2.6 cells were cultured overnight at 26° C. to accumulate the HLA-A*02:06 molecules unbound to the peptide on the cell surface. Any of peptide dilution series was added thereto for binding at 26° C. for 60 minutes.
Subsequently, the mixture was cultured at 35° C. for 4 hours, resulting in the denaturation of the empty HLA-A*02:06 molecule unbound to the peptide and the loss of its steric structure. A fluorescent labeled monoclonal antibody, BB7.2, specifically recognizing a peptide-bound HLA-A*02:06 molecule, was added thereto, which was then incubated on ice for 20 minutes to stain the cells.
(§1) Thereafter, the amount of fluorescence per cell was measured using a flow cytometer, and the dissociation constant, Kd value, was calculated using a method as published in a paper by the present inventor (Udaka et al., Immunogenetics, 51, 816-828, 2000).

[3] = target: T2, HLA-A*02:01 molecule (product of HLA-A*02:01 gene) on T2 cells (human); test: flow cytometry, T2 cells with added b2m, peptide dilution series, BB7.2 staining
T2 construct: MHC class I molecule on TAP-deficient T2 cells; stabilisation read with antibody BB7.2
Description: T2 cells and purified β2m were added to stepwise dilution series of a peptide whose binding capacity was to be measured, which was then incubated at 37° C. for 4 hours.
as §1

Binder | Binding Experiment Data (log Kd) [1] | Binding Experiment Data (log Kd) [2] | Binding Experiment Data (log Kd) [3]
GYICSHSPV (Synthetic peptide; only the start position in GPC3 is printed) [GPC3-derived peptide GYICSHSPV (SEQ ID NO: 6)] | -6.55 log Kd (concentration unit not printed) | – | –
KLTTTIGKL (Synthetic peptide; only the start position in GPC3 is printed) [GPC3-derived peptide KLTTTIGKL (SEQ ID NO: 9)] | -5.21 log Kd (concentration unit not printed) | -5.03 log Kd (concentration unit not printed) | -4.97 log Kd (concentration unit not printed)
LLQSASMEL (Synthetic peptide; only the start position in GPC3 is printed) [GPC3-derived peptide LLQSASMEL (SEQ ID NO: 8)] | -5.49 log Kd (concentration unit not printed) | -5.88 log Kd (concentration unit not printed) | -6.14 log Kd (concentration unit not printed)
GMIKVKNQL (Synthetic peptide; only the start position in GPC3 is printed) [GPC3-derived peptide GMIKVKNQL (SEQ ID NO: 10)] | -6.9 log Kd (concentration unit not printed) | -3.36 log Kd (concentration unit not printed) | -4.76 log Kd (concentration unit not printed)
ARLNMEQLL (Synthetic peptide; only the start position in GPC3 is printed) [GPC3-derived peptide ARLNMEQLL (SEQ ID NO: 11)] | -5.2 log Kd (concentration unit not printed) | -2.76 log Kd (concentration unit not printed) | -3.84 log Kd (concentration unit not printed)
SLQVTRIFL (Synthetic peptide; only the start position in GPC3 is printed) [GPC3-derived peptide SLQVTRIFL (SEQ ID NO: 4)] | -5.34 log Kd (concentration unit not printed) | -5.21 log Kd (concentration unit not printed) | -6.21 log Kd (concentration unit not printed)
LFDSLFPVI (Synthetic peptide; only the start position in GPC3 is printed) [GPC3-derived peptide LFDSLFPVI (SEQ ID NO: 2)] | -7.43 log Kd (concentration unit not printed) | – | -5.07 log Kd (concentration unit not printed)
ALNLGIEVI (Synthetic peptide; only the start position in GPC3 is printed) [GPC3-derived peptide ALNLGIEVI (SEQ ID NO: 7)] | -3.96 log Kd (concentration unit not printed) | -4.16 log Kd (concentration unit not printed) | -5.92 log Kd (concentration unit not printed)
MVNELFDSL (Synthesized by Fmoc solid-phase method, purity 95% or more; the end is derived from the length of 9) [GPC3-derived peptide MVNELFDSL (SEQ ID NO: 1)] | -4.7 log Kd (concentration unit not printed) | -6.14 log Kd (concentration unit not printed) | -5.31 log Kd (concentration unit not printed)
SALDINECL (Synthetic peptide; only the start position in GPC3 is printed) [GPC3-derived peptide SALDINECL (SEQ ID NO: 3)] | – | -6.32 log Kd (concentration unit not printed) | –
